Experimental data as given in US11278600B2, “Human alpha-galactosidase variants” (Codexis, Inc., priority 2014, dated 2022).
Positions count from the first letter of the chain named.

B1: 418 (protein)
chain: LDNGLARTPTMGWLHWERFMCNLDCQEEPDSCISEKLFMEMAERMVSEGWKDAGYEYLCIDDCWMAPQRDSEGRLQADPQRFPHGIRQLANYVHSKGLKLGIYADVGNKTCAGFPGSFGYYDIDAQTFADWGVDLLKFDGCYCDSLENLADGYKHMSLALERTGRSIVYSCEWPLYMWPFQKPNYTEIRQYCNHWRNFADIDDSWKSIKSILDWTSRNQERIVDVAGPGGWNDPDMLVIGNFGLSWDQQVTQMALWAIMAAPLFMSNDLRHISPQAKALLQDKDVIAINQDPLGKQGYQLRKGDNFEVWERPLSGDAWAVAIINRQEIGGPRSYTIPVASLGKGVACNPACFITQLLPVKRQLGFYNWTSRLKSHINPTGTVLLQLENTMQMSLKDLL
modifications: Synthetic Polypeptide sequence of Variant No. 418 of mature Human GLA
B2: 420 (protein)
chain: B1 chain with E161N, S166T
modifications: Synthetic Polypeptide sequence of Variant No. 420 of mature Human GLA
B3: 422 (protein)
chain: B1 chain with L158G, E161N
modifications: Synthetic Polypeptide sequence of Variant No. 422 of mature Human GLA
B4: 423 (protein)
chain: B1 chain with E161N, R162A
modifications: Synthetic Polypeptide sequence of Variant No. 423 of mature Human GLA
B5: 419 (protein)
chain: B1 chain with E161N, S166E
modifications: Synthetic Polypeptide sequence of Variant No. 419 of mature Human GLA
B6: 421 (protein)
chain: B1 chain with E161N, R162Q
modifications: Synthetic Polypeptide sequence of Variant No. 421 of mature Human GLA

Assay: HTP-analysis of supernatants pretreated with acid (MUGal hydrolysis)
Assay type: biochemical
Settings: activity of the variant/activity of Rd4BB (SEQ ID NO: 15); challenge at pH 3.7
Outline: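 GLA variants were secreted from INVSc1 yeast grown 66-84 h at 30° C. in SD-Ura with 2% glucose; supernatants were mixed with McIlvaine buffer pH 3.3-4.3 and held at 37° C. for 1-3 h. Residual activity on MUGal at pH 4.8 was then measured by fluorescence.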

Molecule	Relative Activity of GLA Variants After Challenge at pH 3.7
B1	+ (0.5 to 1.5 relative activity over Rd4BB (SEQ ID NO: 15))
B2	++ (>1.5 to 2.5 relative activity over Rd4BB (SEQ ID NO: 15))
B3	+ (0.5 to 1.5 relative activity over Rd4BB (SEQ ID NO: 15))
B4	+ (0.5 to 1.5 relative activity over Rd4BB (SEQ ID NO: 15))
B5	+ (0.5 to 1.5 relative activity over Rd4BB (SEQ ID NO: 15))
B6	+ (0.5 to 1.5 relative activity over Rd4BB (SEQ ID NO: 15))

Assay: HTP-analysis of yeast culture supernatants, no challenge (MUGal hydrolysis)
Assay type: biochemical
Settings: activity of the variant/activity of Rd4BB (SEQ ID NO: 15)
Outline: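 Activity read as 4-methylumbelliferyl α-D-galactopyranoside hydrolysis: fluorescence (355/448 nm) after sodium carbonate stop, following 30-180 min at 37° C with 2 mM MUGal stock at pH 4.6–4.8. Enzyme source is unchallenged culture supernatant of INVSc1 yeast expressing GLA variants, grown 66-84 h at 30° C.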

Molecule	Relative Activity of GLA Variants After No Challenge (NC)
B1	+ (0.5 to 1.5 relative activity over Rd4BB (SEQ ID NO: 15))
B2	+ (0.5 to 1.5 relative activity over Rd4BB (SEQ ID NO: 15))
B3	+ (0.5 to 1.5 relative activity over Rd4BB (SEQ ID NO: 15))
B4	+ (0.5 to 1.5 relative activity over Rd4BB (SEQ ID NO: 15))
B5	+ (0.5 to 1.5 relative activity over Rd4BB (SEQ ID NO: 15))
B6	+ (0.5 to 1.5 relative activity over Rd4BB (SEQ ID NO: 15))

Assay: HTP-analysis of supernatants pretreated with base (MUGal hydrolysis)
Assay type: biochemical
Settings: activity of the variant/activity of Rd4BB (SEQ ID NO: 15); challenge at pH 9.65
Outline: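 Supernatants from INVSc1 yeast expressing GLA variants (SD-Ura, 66-84 h, 30° C) were mixed with McIlvaine buffer pH 7.0-8.2 or 200 mM sodium bicarbonate pH 9.1-9.7 and held 1-18 h at 37° C. Residual activity was then measured on MUGal at pH 4.8/4.3, 37° C, 30-180 min, by fluorescence (Ex 355/Em 448 nm).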

Molecule	Relative Activity of GLA Variants After Challenge at pH 9.65
B1	− (<0.5 relative activity over Rd4BB (SEQ ID NO: 15))
B2	− (<0.5 relative activity over Rd4BB (SEQ ID NO: 15))
B3	− (<0.5 relative activity over Rd4BB (SEQ ID NO: 15))
B4	+ (0.5 to 1.5 relative activity over Rd4BB (SEQ ID NO: 15))
B5	+ (0.5 to 1.5 relative activity over Rd4BB (SEQ ID NO: 15))
B6	− (<0.5 relative activity over Rd4BB (SEQ ID NO: 15))
